Test results as given in patent publication US20130065244A1, “METHOD FOR PRODUCING cAMP USING [sequence] OLFACTORY RECEPTOR” (published 2013).

B1: chimeric olfactory receptor chimeraIC3-IC4 (receptor)
chain: MNGTEGPNFYVPFSNKTGVVEQKLISEEDLEFMTLSDGNHSGAVFTLLGFSDYPELTIPLFLIFLTIYSITVVGNIGMIVIIRINPKLHIPMYFFLSHLSFVDFCYSSIVAPKMLVNLVTMNRGISFVGCLVQFFFFCTFVVTESFLLGVMAYDRFVAIRNPLLYTVAMSQRLCAMLVLGSYAWGVVCSLILTCSALNLSFYGFNMINHFFCEFSSLLSLSRSDTSVSQLLLFVFATFNEISTLLIILLSYVFREAQKQVKKIDSCERRFLSGPPRPPSPAPSPSPGPPRPADSLANGRSSKRRPSRLVALREQKAFSTCASHLTAITIFHGTILFLYCVPNSKNSRHTVKVASVFYTVVIPMLNPLIYSLRNKDFRKAFQRLLCCARRAACRRRAAHGDRPRASGCLARAGPPPSPGAPSDDDDDDAGATPPARLLEPWAGCNGGTTTVDSDSSLDEPGRQGFSSESKV
B2: chimeric olfactory receptor chimera3 (receptor)
chain: MNGTEGPNFYVPFSNKTGVVEQKLISEEDLEFMGAGALALGASEPCNLSSAAPLPDGAATAARLLVLASPPASLLPPASEGSAPLSQQWTAGMGLLLALIVLLIVVGNVLVIVAIAKTPRLQTLTNLTRPMYFFLSHLSFVDFCYSSIVAPKMLVNLVTMNRGISFVGCLVQFFFFCTFVVTESFLLGVMAYDRFVAIRNPLLYTVAMSQRLCAMLVLGSYAWGVVCSLILTCSALNLSFYGFNMINHFFCEFSSLLSLSRSDTSVSQLLLFVFATFNEISTLLIILLSYVLIVVTILKMKSASGRRKAFSTCASHLTAITIFHGTILFLYCVPNSKNSRHTVKVASVFYTVVIPMLNPLIYSLRNKSRDFRKAFQRLLCCARRAACRRRAAHGDRPRASGCLARAGPPPSPGAPSDDDDDDAGATPPARLLEPWAGCNGGTTTVDSDSSLDEPGRQGFSSESKV
B3: chimeric olfactory receptor chimeraTM7 (receptor)
chain: MNGTEGPNFYVPFSNKTGVVEQKLISEEDLEFMTLSDGNHSGAVFTLLGFSDYPELTIPLFLIFLTIYSITVVGNIGMIVIIRINPKLHIPMYFFLSHLSFVDFCYSSIVAPKMLVNLVTMNRGISFVGCLVQFFFFCTFVVTESFLLGVMAYDRFVAIRNPLLYTVAMSQRLCAMLVLGSYAWGVVCSLILTCSALNLSFYGFNMINHFFCEFSSLLSLSRSDTSVSQLLLFVFATFNEISTLLIILLSYVLIVVTILKMKSASGRRKAFSTCASHLTAITIFHGTILFLYCVPNSKNSRHTPDRLFVFFNWLGYANSAFNPIIYCRSPDFRKAFQRLLCCARRAACRRRAAHGDRPRASGCLARAGPPPSPGAPSDDDDDDAGATPPARLLEPWAGCNGGTTTVDSDSSLDEPGRQGFSSESKV
B4: Rho-myc-mOREG (mouse olfactory receptor for eugenol with Rho tag and myc epitope tag) (receptor)
chain: MNGTEGPNFYVPFSNKTGVVEQKLISEEDLEFMTLSDGNHSGAVFTLLGFSDYPELTIPLFLIFLTIYSITVVGNIGMIVIIRINPKLHIPMYFFLSHLSFVDFCYSSIVAPKMLVNLVTMNRGISFVGCLVQFFFFCTFVVTESFLLGVMAYDRFVAIRNPLLYTVAMSQRLCAMLVLGSYAWGVVCSLILTCSALNLSFYGFNMINHFFCEFSSLLSLSRSDTSVSQLLLFVFATFNEISTLLIILLSYVLIVVTILKMKSASGRRKAFSTCASHLTAITIFHGTILFLYCVPNSKNSRHTVKVASVFYTVVIPMLNPLIYSLRNKDVKDTVKKIIGTKVYSS
B5: Rho-mOREG (mouse olfactory receptor for eugenol with N-terminal Rho tag) (receptor)
chain: MNGTEGPNFYVPFSNKTGVVMTLSDGNHSGAVFTLLGFSDYPELTIPLFLIFLTIYSITVVGNIGMIVIIRINPKLHIPMYFFLSHLSFVDFCYSSIVAPKMLVNLVTMNRGISFVGCLVQFFFFCTFVVTESFLLGVMAYDRFVAIRNPLLYTVAMSQRLCAMLVLGSYAWGVVCSLILTCSALNLSFYGFNMINHFFCEFSSLLSLSRSDTSVSQLLLFVFATFNEISTLLIILLSYVLIVVTILKMKSASGRRKAFSTCASHLTAITIFHGTILFLYCVPNSKNSRHTVKVASVFYTVVIPMLNPLIYSLRNKDVKDTVKKIIGTKVYSS
B6: chimeric olfactory receptor chimeraIC3 (receptor)
chain: MNGTEGPNFYVPFSNKTGVVEQKLISEEDLEFMTLSDGNHSGAVFTLLGFSDYPELTIPLFLIFLTIYSITVVGNIGMIVIIRINPKLHIPMYFFLSHLSFVDFCYSSIVAPKMLVNLVTMNRGISFVGCLVQFFFFCTFVVTESFLLGVMAYDRFVAIRNPLLYTVAMSQRLCAMLVLGSYAWGVVCSLILTCSALNLSFYGFNMINHFFCEFSSLLSLSRSDTSVSQLLLFVFATFNEISTLLIILLSYVFREAQKQVKKIDSCERRFLSGPPRPPSPAPSPSPGPPRPADSLANGRSSKRRPSRLVALREQKAFSTCASHLTAITIFHGTILFLYCVPNSKNSRHTVKVASVFYTVVIPMLNPLIYSLRNKDVKDTVKKIIGTKVYSS
B7: chimeric olfactory receptor chimera1 (receptor)
chain: MNGTEGPNFYVPFSNKTGVVEQKLISEEDLEFMTLSDGNHSGAVFTLLGFSDYPELTIPLFLIFLTIYSITVVGNIGMIVIIRINPKLHIPMYFFLSHLSFVDFCYSSIVAPKMLVNLVTMNRGISFVGCLVQFFFFCTFVVTESFLLGVMAYDRFVAIRNPLLYTVAMSQRLCAMLVLGSYAWGVVCSLILTCSALNLSFYGFNMINHFFCEFSSLLSLSRSDTSVSQLLLFVFATFNEISTLLIILLSYVLIVVTILKMKSASGRRKAFSTCASHLTAITIFHGTILFLYCVPNSKNSRHTVKVASVFYTVVIPMLNPLIYSLRNKDFRKAFQRLLCCARRAACRRRAAHGDRPRASGCLARAGPPPSPGAPSDDDDDDAGATPPARLLEPWAGCNGGTTTVDSDSSLDEPGRQGFSSESKV

What follows are molecules tested against Gαolf (G protein alpha subunit which is specifically expressed on an olfactory epithelium) (mouse) (UniProt Q8CGK7) (assay: not given).
beta-1 adrenergic receptor (β1AR) showed a concentration of cAMP (EIA, normalised to protein) after isoproterenol of 0.956 pmol/µg.

These molecules were tested against Gαolf (G protein alpha subunit which is specifically expressed on an olfactory epithelium) (mouse, UniProt Q8CGK7) (assay: cell-based or functional assay).
In the case of B1, the “concentration increase value of the cAMP (300 µM eugenol minus 0 µM)” value is reported as 0.004 pmol/microgram. For B2, the “concentration increase value of the cAMP (300 µM eugenol minus 0 µM)” value was 0.0009 pmol/microgram. For B3, the “concentration increase value of the cAMP (300 µM eugenol minus 0 µM)” value was 0.0056 pmol/microgram. For B4, the “concentration increase value of the cAMP (300 µM eugenol minus 0 µM)” value was 0.0109 pmol/microgram. With B5 the “concentration increase value of the cAMP (300 µM eugenol minus 0 µM)” value was 0.0061 pmol/microgram. With B6 the “concentration increase value of the cAMP (300 µM eugenol minus 0 µM)” value was 0.0017 pmol/microgram. For B7, the “concentration increase value of the cAMP (300 µM eugenol minus 0 µM)” value was 0.0185 pmol/microgram.
